Residue numbers refer to the chain shown, from its start. Where “and” joins values, the source holds several entries; their conditions need not be identical. Equal values may be shown once. Read-outs that look alike come from different tables or passages of the source. Each block holds one binder with its values, some of them ahead of it.
Experiments:
[1] = molecular target: pre-existing anti-VH ADA in human serum; assay: ADA confirmation assay of Example 2 (MSD): test material against labelled DOM1H-131-206
[2] = molecular target: T1, Recombinant human TNFR1-Fc (human, UniProt P19438 30-211, limits assumed); assay: ELISA: dAb on coated recombinant human TNFR1-Fc
T1 construct: bought reagent; also called hTNFR1:Fc; not shown: Fc part; not described
T1 sequence (looked up): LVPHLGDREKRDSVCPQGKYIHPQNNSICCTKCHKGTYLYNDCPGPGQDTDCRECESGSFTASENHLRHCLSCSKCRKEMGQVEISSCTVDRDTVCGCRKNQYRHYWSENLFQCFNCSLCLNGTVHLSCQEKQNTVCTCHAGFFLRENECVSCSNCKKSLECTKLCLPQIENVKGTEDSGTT

[3] = molecular target: pre-existing anti-VH ADA in human serum; assay: ADA confirmation assay (MSD): 10 ug/mL test material against labelled DOM1H-131-206, mean of 10 sera
[4] = molecular target: pre-existing anti-VH ADA in human serum; assay: ADA confirmation assay (MSD): 10 ug/mL test material against labelled DOM1H-131-206; share of 10 ADA-positive sera with binding
[5] = molecular target: pre-existing anti-VH ADA in human serum; assay: ADA confirmation assay (MSD) described previously, mean of 10 donor sera
[6] = molecular target: T2, human TNFR1 (on human cells) (human, UniProt P19438 30-455); assay: cell-based or functional assay
T2 sequence (looked up): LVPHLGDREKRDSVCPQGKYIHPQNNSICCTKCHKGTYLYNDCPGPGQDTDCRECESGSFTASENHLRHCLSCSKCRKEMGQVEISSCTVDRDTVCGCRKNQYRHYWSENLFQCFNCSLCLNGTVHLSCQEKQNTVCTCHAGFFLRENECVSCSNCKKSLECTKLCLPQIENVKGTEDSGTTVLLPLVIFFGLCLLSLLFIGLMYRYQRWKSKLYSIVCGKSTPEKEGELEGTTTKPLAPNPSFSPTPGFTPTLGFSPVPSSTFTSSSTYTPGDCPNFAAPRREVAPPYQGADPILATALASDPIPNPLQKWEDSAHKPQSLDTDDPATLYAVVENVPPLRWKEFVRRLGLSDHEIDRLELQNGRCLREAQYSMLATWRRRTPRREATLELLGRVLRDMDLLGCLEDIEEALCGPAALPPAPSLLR

[7] = molecular target: T3, cynomolgus monkey TNFR1 (on monkey cells) (cynomolgus monkey, UniProt Q2PFV5 30-455); assay: cell-based or functional assay
T3 sequence: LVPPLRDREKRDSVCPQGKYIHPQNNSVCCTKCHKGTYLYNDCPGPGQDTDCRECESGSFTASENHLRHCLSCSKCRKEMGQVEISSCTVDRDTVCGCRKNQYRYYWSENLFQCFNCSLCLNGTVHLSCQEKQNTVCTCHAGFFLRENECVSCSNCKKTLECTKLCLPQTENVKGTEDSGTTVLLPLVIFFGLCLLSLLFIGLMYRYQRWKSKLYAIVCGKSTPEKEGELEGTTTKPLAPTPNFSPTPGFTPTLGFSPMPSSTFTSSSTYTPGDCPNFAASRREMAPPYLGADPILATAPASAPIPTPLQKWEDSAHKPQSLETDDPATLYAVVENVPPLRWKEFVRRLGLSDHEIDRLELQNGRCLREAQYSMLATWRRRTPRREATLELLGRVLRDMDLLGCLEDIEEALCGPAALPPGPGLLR

cynomolgus monkey TNFR1 = molecular target: T4, cynomolgus monkey TNFR1 (cynomolgus monkey, UniProt Q2PFV5 30-211); assay: SPR (Biacore T100), same format with cynomolgus monkey TNFR1, dAb as analyte, 1:1 model
T4 sequence: T1 sequence (looked up) with H4P, G6R, I28V, H105Y, S159T, I170T

[8] = molecular target: T1, Recombinant human TNFR1-Fc; assay: SPR (Biacore T100): TNFR1:Fc captured by anti-human IgG on a CM4 chip, dAb as analyte, 1:1 model
[9] = molecular target: T1, Recombinant human TNFR1-Fc; assay: ELISA: dAb on coated recombinant human TNFR1-Fc, anti-Vh detection
[10] = molecular target: pre-existing anti-VH ADA in human serum; assay: ADA confirmation assay (MSD): 10 ug/mL test material against labelled DOM1H-131-206, mean of 10 sera; remark: listed apart in the source
[11] = molecular target: pre-existing anti-VH ADA in human serum; assay: ADA confirmation assay (MSD): 10 ug/mL test material against labelled DOM1H-131-206; share of 10 ADA-positive sera with binding; remark: listed apart in the source

B2: DOM1H-131-206 C-terminal ASTKGP (other)
VH: EVQLLESGGGLVQPGGSLRLSCAASGFTFAHETMVWVRQAPGKGLEWVSHIPPDGQDPFYADSVKGRFTISRDNSKNTLYLQMNSLRAEDTAVYHCALLPKRGPWFDYWGQGTLVTVSSASTKGP
notes: VH dAb variant
fold change of EC50 against the parental dAb DOM1H-131-206 [2]: ~5 fold | Mean % inhibition of signal in confirmation assay [3]: 42.6% | % subjects with ADA binding (10 subjects) (% of subjects) [4]: 60

B4: DOM10H-53-567 C-terminal ASTKG (protein)
VH: GVQLLESGGGLVQPGGSLRLSCAASGFVFAWYDMGWVRQAPGKGLEWVSSIDWHGEVTYYADSVKGRFTISRDNSKNTLYLQMNSLRAEDTAVYYCATAEDEPGYDYWGQGTLVTVSSASTKG
% inhibition in confirmation assay [5]: 13.4%

B5: DOM1H-131-206 (other)
VH: EVQLLESGGGLVQPGGSLRLSCAASGFTFAHETMVWVRQAPGKGLEWVSHIPPDGQDPFYADSVKGRFTISRDNSKNTLYLQMNSLRAEDTAVYHCALLPKRGPWFDYWGQGTLVTVSS
notes: human anti-TNFR1 VH domain antibody (dAb); biotinylated or Sulfo-Tag labelled where it is the assay reagent
IC50, inhibition of TNFα-induced IL-8, A549 human lung epithelium (n = 2) [6]: 1000 pM | IC50, inhibition of TNFα-induced IL-8, Human whole blood (n = 3-5) [6]: 1600 pM | IC50, inhibition of TNFα-induced IL-8, MRC5 human lung fibroblast (n = 3) [6]: 4800 pM | IC50, inhibition of LPS-induced IL-8, Cynomolgus monkey whole blood (n = 3) [7]: 500 pM | IC50, inhibition of TNFα-induced IL-8, CYNOMK1 Cynomolgus monkey skin fibroblasts (n = 2) [7]: 4800 pM | Kd (cynomolgus monkey TNFR1): 15 pM | koff (cynomolgus monkey TNFR1): 0.000151 s⁻¹ | kon (cynomolgus monkey TNFR1): 1.01e+07 M⁻¹ s⁻¹ | Mean % inhibition of signal in confirmation assay [3]: 96.1% and 99.5% | Kd [8]: 14.3 pM | koff [8]: 0.000142 s⁻¹ | kon [8]: 9.94e+06 M⁻¹ s⁻¹ | % subjects with ADA binding (10 subjects) (% of subjects) [4]: 100

B7: DOM1H-131-206 with a C-terminal alanine extension (other)
VH: EVQLLESGGGLVQPGGSLRLSCAASGFTFAHETMVWVRQAPGKGLEWVSHIPPDGQDPFYADSVKGRFTISRDNSKNTLYLQMNSLRAEDTAVYHCALLPKRGPWFDYWGQGTLVTVSSA
notes: VH dAb variant
IC50, inhibition of TNFα-induced IL-8, A549 human lung epithelium (n = 2) [6]: 1000 pM | IC50, inhibition of TNFα-induced IL-8, Human whole blood (n = 3-5) [6]: 900 pM | IC50, inhibition of TNFα-induced IL-8, MRC5 human lung fibroblast (n = 3) [6]: 3500 pM | IC50, inhibition of LPS-induced IL-8, Cynomolgus monkey whole blood (n = 3) [7]: 400 pM | IC50, inhibition of TNFα-induced IL-8, CYNOMK1 Cynomolgus monkey skin fibroblasts (n = 2) [7]: 4700 pM | Kd (cynomolgus monkey TNFR1): 19.7 pM | koff (cynomolgus monkey TNFR1): 0.000189 s⁻¹ | kon (cynomolgus monkey TNFR1): 9.6e+06 M⁻¹ s⁻¹ | Mean % inhibition of signal in confirmation assay [3]: 15.7% | Mean % inhibition of signal in confirmation assay [10]: 1.12% | Kd [8]: 25.3 pM | koff [8]: 0.000229 s⁻¹ | kon [8]: 9.02e+06 M⁻¹ s⁻¹

Now from value to binder:

Mean % Inhibition [1]: 17.5%
B1: VHH2(f) + A (VHH)
VHH: EVQLVESGGGLVQPGGSLRLSCAASGRTFSYNPMGWFRQAPGKGRELVAAISRTGGSTYYPDSVEGRFTISRDNAKRMVYLQMNSLRAEDTAVYYCAAAGVRAEDGRVRTLPSEYTFWGQGTQVTVSSAAAEVQLVESGGGLVQPGGSLRLSCAASGRTFSYNPMGWFRQAPGKGRELVAAISRTGGSTYYPDSVEGRFTISRDNAKRMVYLQMNSLRAEDTAVYYCAAAGVRAEDGRVRTLPSEYTFWGQGTQVTVSSA

Mean % Inhibition [1]: 94.2%
B3: Clone VHH2(f) (VHH)
VHH: EVQLVESGGGLVQPGGSLRLSCAASGRTFSYNPMGWFRQAPGKGRELVAAISRTGGSTYYPDSVEGRFTISRDNAKRMVYLQMNSLRAEDTAVYYCAAAGVRAEDGRVRTLPSEYTFWGQGTQVTVSSAAAEVQLVESGGGLVQPGGSLRLSCAASGRTFSYNPMGWFRQAPGKGRELVAAISRTGGSTYYPDSVEGRFTISRDNAKRMVYLQMNSLRAEDTAVYYCAAAGVRAEDGRVRTLPSEYTFWGQGTQVTVSS

EC50 [9]: 790 pM | Mean % inhibition of signal in confirmation assay [10]: 91% | % subjects with ADA binding (10 subjects) (% of subjects) [11]: 100
B6: DOM1H-131-206 A84T (other, name in Kabat numbering)
VH: B5 VH with A88T
notes: VH dAb variant

Reference: patent US20250136721A1 (GlaxoSmithKline, published 2025)
